These results are taken from patent US8168594B2, “Method for treating celiac disease” (Alba Therapeutics Corporation, priority 2006, dated 2012).

The nature of series [1]: Release from delayed-release particles in Simulated Intestinal Fluid (dissolution apparatus, HPLC). The class given is physicochemical. The settings on record: delayed-release particles containing 4-6% peptide, SIF containing 0.1% v/v Tween 80K, after 1 hour in SGF. The method, then: (§1) The stability of delayed-release particles containing 4-6% tight junction antagonist peptide (SEQ ID NO: 1) was performed. Delayed-release particles prepared as described above were exposed to Simulated Gastric Fluid (SGF) containing 0.1% v/v Tween 80K under controlled temperature (37° C.±0.5° C.) and agitation in a dissolution apparatus for 1 hour. The beads were removed from the SGF and exposed to Simulated Intestinal Fluid (SIF) containing 0.1% v/v Tween 80K. Samples were pulled from the bath and analyzed by HPLC at 220 nm on a Inertsil ODS-2 HPLC Column (150 mm×3 mm, 5 μm) with an Inertsil ODS-2 HPLC Guard Column (20 mm×4.6 […], 5 μm). Mobile Phase A: 92:8 Water:ACN, 0.1% TFA Mobile Phase B: ACN, 0.1% TFA). The chromatographic conditions are shown below.
(§2) • Run time: 17 min • Detection: 220 nm • Response time: 0.5 sec • Column Temp.: 40° C.±1° C. • Auto Sampler Temp: 10° C.±2° c. • Injection Volume: 5 μl of solution
(§3) The percentage of total tight junction effector released is determined by comparison to a reference standard of the effector.
SIF can be prepared as follows: place the following into a container: 1.9 Kg distilled water, 136 g monobasic potassium phosphate, and 18.1 gram of sodium hydroxide. Stir until completely dissolved. Dilute the solution with 18.0 Kg water. Check the pH and adjust to 6.8±0.1 with dilute HCl or NaOH. De-aerated medium. […]

Series [2] in a line: Release from delayed-release particles in Simulated Gastric Fluid (dissolution apparatus, HPLC). The class given is physicochemical. The conditions noted are these: delayed-release particles containing 4-6% peptide; SGF containing 0.1% v/v Tween 80K, 37° C.; time course of 60 minutes. The method, then: as §1, §2, §3
Simulated Gastric Fluid may be prepared as follows: per liter, place the following into a container: 2.0 gram sodium chloride, 7.0 mL concentrated hydrochloric acid, and 1.0 L water. Stir until completely dissolved. Check the pH and adjust to 1.2±0.1 with dilute HCl or NaOH. De-aerate medium. To this solution Tween 80 was added to 0.1% (v/v). […]

Series [3] concerns rabbit ileal mucosa. The conditions noted are these: cited from earlier work.

With “GGVLVQPG [SEQ ID NO:1, tight junction antagonist peptide]”, in series [1] (within 15 minutes), the “antagonist peptide released in simulated intestinal fluid within 15 minutes” value is listed as “Over 90%”. Also, in series [1] (within 60 minutes), the “antagonist peptide released in simulated intestinal fluid within 60 minutes” value was “essentially all”. Further, the “antagonist peptide released in simulated gastric fluid” value in series [2] was “less than 8%”.
In the case of “ZOT: Zonula occludens toxin produced by Vibrio cholerae; tight junction agonist”, the “effect on intestinal permeability” value in series [3] is “increased the intestinal permeability”.
